PMC4067148 (Biochemistry, 2014)
Positions count from the first letter of the chain named. In names and notes the source's numbering stands.

B1: wild-type AcrB (natural protein, Escherichia coli)
chain: MPNFFIDRPIFAWVIAIIIMLAGGLAILKLPVAQYPTIAPPAVTISASYPGADAKTVQDTVTQVIEQNMNGIDNLMYMSSNSDSTGTVQITLTFESGTDADIAQVQVQNKLQLAMPLLPQEVQQQGVSVEKSSSSFLMVVGVINTDGTMTQEDISDYVAANMKDAISRTSGVGDVQLFGSQYAMRIWMNPNELNKFQLTPVDVITAIKAQNAQVAAGQLGGTPPVKGQQLNASIIAQTRLTSTEEFGKILLKVNQDGSRVLLRDVAKIELGGENYDIIAEFNGQPASGLGIKLATGANALDTAAAIRAELAKMEPFFPSGLKIVYPYDTTPFVKISIHEVVKTLVEAIILVFLVMYLFLQNFRATLIPTIAVPVVLLGTFAVLAAFGFSINTLTMFGMVLAIGLLVDDAIVVVENVERVMAEEGLPPKEATRKSMGQIQGALVGIAMVLSAVFVPMAFFGGSTGAIYRQFSITIVSAMALSVLVALILTPALCATMLKPIAKGDHGEGKKGFFGWFNRMFEKSTHHYTDSVGGILRSTGRYLVLYLIIVVGMAYLFVRLPSSFLPDEDQGVFMTMVQLPAGATQERTQKVLNEVTHYYLTKEKNNVESVFAVNGFGFAGRGQNTGIAFVSLKDWADRPGEENKVEAITMRATRAFSQIKDAMVFAFNLPAIVELGTATGFDFELIDQAGLGHEKLTQARNQLLAEAAKHPDMLTSVRPNGLEDTPQFKIDIDQEKAQALGVSINDINTTLGAAWGGSYVNDFIDRGRVKKVYVMSEAKYRMLPDDIGDWYVRAADGQMVPFSAFSSSRWEYGSPRLERYNGLPSMEILGQAAPGKSTGEAMELMEQLASKLPTGVGYDWTGMSYQERLSGNQAPSLYAISLIVVFLCLAALYESWSIPFSVMLVVPLGVIGALLAATFRGLTNDVYFQVGLLTTIGLSAKNAILIVEFAKDLMDKEGKGLIEATLDAVRMRLRPILMTSLAFILGVMPLVISTGAGSGAQNAVGTGVMGGMVTATVLAIFFVPVFFVVVRRRFSRKNEDIEHSHTVDHH
B2: AcrB_(L886G/E893G/W895G) (natural protein, Escherichia coli)
chain: B1 chain with L886G, E893G, W895G
B3: AcrB_(L886G/E893G) (natural protein, Escherichia coli)
chain: B1 chain with L886G, E893G
B4: AcrB_(E893G/W895G) (natural protein, Escherichia coli)
chain: B1 chain with E893G, W895G
B5: AcrB_(L886G) (natural protein, Escherichia coli)
chain: B1 chain with L886G
B6: AcrB_(E893G) (natural protein, Escherichia coli)
chain: B1 chain with E893G
B7: AcrB_(W895G) (natural protein, Escherichia coli)
chain: B1 chain with W895G

Target: the molecule itself
Experiment: native gel or EMSA

Which “KX (trimer association constant, mole fraction)” value does the source give for B1 here?
Its value is 1.6e+09.

How did the “KX (trimer association constant, mole fraction)” value turn out when B2 was run?
Its value is 1e+07.

Which “KX (trimer association constant, mole fraction)” value does the source give for B3 here?
Its value is 1e+07.

How did the “KX (trimer association constant, mole fraction)” value turn out when B4 was run?
Its value is 8.6e+06.

With B5 as the protein, how does the “KX (trimer association constant, mole fraction)” value read?
The value was 1.4e+07.

With B6 as the protein, how does the “KX (trimer association constant, mole fraction)” value read?
The value was 3.2e+09.

With B7 as the protein, how does the “KX (trimer association constant, mole fraction)” value read?
The value was 2.2e+07.

Target: the molecule itself
Experiment: native gel or EMSA
Remark: another data set of the same source

Which “stoichiometry N” value does the source give for B2 here?
The value was 3.

How did the “stoichiometry N” value turn out when B3 was run?
The value was 3.

For B4, which “stoichiometry N” value is on record?
The value was 3.

How did the “stoichiometry N” value turn out when B5 was run?
The value was 3.

With B6 as the protein, how does the “stoichiometry N” value read?
Its value is 3.

B7 was tested. Which “stoichiometry N” value did it give?
The value was 3.
